In this assay the target is non-WT1-derived peptide expressed on TPC1 cells in complex with HLA-A*02:01 (human). The assay can be described thus: cell-based or functional assay.

With ESK1 (antibody), the improvement of specific lysis, chromium-51 release ADCC, TPC1 cells pretreated with 100 nM trametinib stood at 10%; the percent specific lysis, chromium-51 release ADCC with human PBMCs, 50:1 E:T, TPC1 cells pretreated with 10 nM AST487 came to 20%; the percent specific lysis, chromium-51 release ADCC with human PBMCs, 50:1 E:T, TPC1 cells pretreated with DMSO turned out to be 3%.

For the origin of these results see patent US20210379046A1, “Methods of Treating Diseases Using Kinase Modulators” (Memorial Sloan Kettering Cancer Center, priority 2018, published 2021).
